{"source": "patent US20240239894A1", "about": "(AstraZeneca / MedImmune, published 2024)", "molecular_target": "T1, Human B7-H4-Fc (Human B7H4 ECD, Fc_6His) (human)", "T1 construct": "also called FcHis6 tagged human B7-H4", "T1 sequence (Q7Z7D3 whole entry, looked up)": "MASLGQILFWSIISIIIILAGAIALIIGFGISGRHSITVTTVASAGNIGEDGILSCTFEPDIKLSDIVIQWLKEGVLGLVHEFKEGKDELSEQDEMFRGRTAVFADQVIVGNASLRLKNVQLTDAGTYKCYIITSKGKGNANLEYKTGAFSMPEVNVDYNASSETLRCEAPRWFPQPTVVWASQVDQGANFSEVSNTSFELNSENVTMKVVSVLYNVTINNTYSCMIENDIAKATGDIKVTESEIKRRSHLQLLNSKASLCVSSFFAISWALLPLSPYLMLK", "assay": "ELISA on coated human B7H4/Fc, absorbance 450 nm, [IgG] 0.006 to 100 nM", "data": [{"binder": "E02-GL (ZY0EQD_E02, germlined) (antibody, V domains shown, AF647-labelled in flow cytometry; also called EQD-E02_GL; ZY0EQD-E02-GL) VH: QVQLQQWGAGLLKPSETLSLACTVYGGSFSGYYWNWIRQPPGKGLEWIGEINHSGSTSYNPSLKSRVTISVDTSKNQFSLKLSSVTAADTAVYYCARVLYNWNVDSWGQGTLVTVSS VL: DIQMTQSPSSLSASVGDRVTITCRASQDIRNDVGWYQQKPGKAPKRLIYAASRLQSGVPSRFSGSGSGTEFTLTISSLQPEDFATYYCLQHNSYPRTFGQGTKVEIK", "values": [{"measurement": "EC50 (read off the curve)", "value": "~500", "unit": "pM"}]}]}
